Positions count from the first letter of the chain named. Entries after “also recorded” stand apart in the source; their conditions may differ.
B1: 118 (protein)
chain: MAKKPRIDMHSHFFPRISEQEAAKFDANHAPWLQVSAKGDTGSIMMGKNNFQPVYQALWDPAFRIEEMDAQGVDVQVTCATPVMFGYTWEANKAAQWAERMNDFALEFAAHNPQRIKVLAQVPLQDLDLACKEASRAVAAGHLGIQIGNHLGDKDLDDATLEAFLTHCANEDIPILVHGTDMMGGQRMKKWGLPWLVALAAEVQLAILSLILSGAFERIPKSLKICFSHGGGSFAFLLGLVDEAWRHVDIVREDCPRPPSEYVDRFFVDSVGNPGALELLVSVMGEDRVMLGSDYPHTTGEQKIGGLVLSSNLGESAKDKIISGNASKFFNINV
modifications: Dicamba decarboxylase variant clone DC.5.033
B2: 119 (protein)
chain: B1 chain with T180W, P194Y, L199H, A200H, L237T, L240W, H297L
modifications: Dicamba decarboxylase variant cloneDC.5.034
B3: 117 (protein)
chain: MAKKPRIDMHSHFFPRISEQEAAKFDANHAPWLQVSAKGDTGSIMMGKNNFRPVYQALWDPAFRIEEMDAQGVDVQVTCATPVMFGYTWEANKAAQWAERMNDFALEFAAHNPQRIKVLAQVPLQDLDLACKEASRAVAAGHLGIQIGNHLGDKDLDDATLEAFLTHCANEDIPILVHPWDMMGGQRMKKWMLPVLVAAPAEVQLAILSLILSGAFERIPKSLKICFAGGGGSFAFLLGIVDLAWRHRDIVREDCPRPPSEYVDRFFVDSLVFNPGALELLVSVMGEDRVMLGSDYPFPTGEQKIGGLVLSSNLGESAKDKIISGNASKFFNINV
modifications: Dicamba decarboxylase variant clone DC.5.008
B4: 95 (protein, listed as Pseudomonas fluorescens)
chain: B3 chain with V195W, A199M, V203T, A228G, G229H, I240R, L243N, L271A, T300L
B5: 100 (protein, listed as Reinekea blandensis)
chain: MAIIDCHGHYTTTPKGVEDYRNAQKAAVAKDPSFKGEKGQVVVSDDEIRESIENNQLKMQRERGTDLTIFSPRASWMGHHIGNEYTSQFWTEHQNDLIRRVCDLFPKNFAPVAQLPQSPGVDPAKSVPEIVRTVEQMGFIGINLNPDPSGGYWKDTSLADRAFYPIYEKMVEYDIPAMIHVSAACNDCFHTTGSHYLGADTTGFQQLIMSDVFKDFPSLKIIIPHGGGAVPYHWGRFRGLMQDQGYAPLEESALKNIYFDTCVYHQRGIDLLLDIVPTQNILFASEMIGAVRGIDPETGHNFDDTKRYIDNNTALNAEEKAMIFEGNARRVFSRLKTD
B6: 41 (protein, listed as Polaromonas sp.)
chain: MANGKIALEEHFATEETLMDSAGFVPDKDWPELRSRLLDIQDRRVRLMDEHGIETMILSLNAPAVQAIADSTRANETARRANDFLAEQVAKQPTRFRGFAALPMQDPELAARELERCVKELGFVGALVNGFSQDNRSAVPLYYDMAQYWPFWETVQALDVPFYLHPRNPLPSDARIYDGHAWLLGPTWAFGQETAVHALRLMGSGLFDKYPALKIILGHMGEGLPYSMWRIDHRNAWIKTTPKYPAKRKIVDYFNENFYLTTSGNFRTQTLIDAILEIGADRILFSTDWPFENIDHAADWFENTSISEADRKKIGWGNAQNLFKLNR
B7: SEQ ID NO:95: Alpha-Amino-Beta-Carboxymuconate-Epsilon-Semialdehyde-Decarboxylase, Pseudomonas fluorescens (protein, listed as Pseudomonas fluorescens)
chain: B3 chain with V195W, A199M, V203T, A228G, G229H, I240R, L243N, L271A, T300L
B8: SEQ ID NO:100: 4-Oxalomesaconate hydratase, Reinekea blandensis MED297 (protein, listed as Reinekea blandensis)
chain: B5 chain
B9: SEQ ID NO: 116 (protein)
chain: MAQGKVALEEHFAIPETLQDAAGFVPGDYWKELQHRLLDIQDRRVRLMDEHGIETMILSLNAPAVQAIADSTRANETARRANDFLAEQVAKQPTRFRGFAALPMQDPELAARELERCVKELGFVGALVNGFSQDNRSAVPLYYDMAQYWPFWETVQALDVPFYLHPRNPLPSDARIYDGHAWLLGPTWAFGQETAVHALRLMGSGLFDKYPALKIILGHMGEGLPYSMWRIDHRNAWIKTTPKYPAKRKIVDYFNENFYLTTSGNFRTQTLIDAILEIGADRILFSTDWPFENIDHAADWFENTSISEADRKKIGWGNAQNLFKLNR
modifications: Dicamba decarboxylase variant clone DC.30.007
B10: 2 (protein, listed as Serratia sp.)
chain: MAKIICLEEHTLDKALVMASMPAALEQAPFLSDWGKTVTDGNLPDRSRPQIEKNDLINIKGADIGRGRLDDMDVAGITMQVLSVGGFPHLISAAEGVDLNRAANDRLADAVNAHPDRFAAFATLPWAQPDSAEKELERAVKELGFKGALLNGRPSTHFLDHPDYDGLLARFNALGVPLYLHPGLPVRSVQQAYYGGFSDEVTARLSMFGWGWHHEAGIHLLRLILSGAFDKYPNLQVISGHWGEMLPFWLQRLDDSLPQAATGLRRTIAQTFKEQVYVTPSGMLTLPHFQFIYALLGAERIIFSVDYPYQTLDGVKAFIQSLPVPEEAKEAIAFRNAERLLGLTS
B11: 32 (protein)
chain: MARIIAIEEHFLDLDIARASRPEAERLSPAFAAAYGAGQGYNYSPAPEVLLDLEEGRVADMDAHGISMQVLSSLSTQQLPADVAVELVRKVNDRAAAAVAARPDRFAAFAALPTTVPEAAADELDRAVGELGFVGSMINGRTGDAFLDAPRFDAVLRRSAELRVPVYLHPGVPPVETSRSNYEGGLDPIVTARLQTSAWGWHVETGIHFLHLVLAGVFDRYPDLQVILGHWGEMVPFFLERIEEALPQQITHLDRPVGAYFRENAHITPSGMFSQAQLQFCVETVGIERIMFSVDYPFLGNDGAEAFLRQANLPPLATEKIAHLNAERLLALPS
modifications: Streptomyces violaceusniger
B12: 31 (protein, listed as Agrobacterium sp.)
chain: MAQGKVALEEHFAIPETLQDSAGFVPGDYWKELQHRLLDIQDTRLKLMDAHGIETMILSLNAPAVQAIPDKTKAIEIARRANDVLAEECAKRPDRFLAFAALPLQDPDAATEELQRCVNDLGFVGALVNGFSQEGDGQTPLYYDLPQYRPFWGEVEKLDVPFYLHPRNPLPQDSRIYDGHPWLLGPTWAFAQETAVHALRLMASGLFDEHPRLNIILGHMGEGLPYMMWRIDHRNAWVKLPPRYPAKRRFMDYFNENFHITTSGNFRTQTLIDAILEIGADRILFSTDWPFENIDHASDWFNATSIAEADRVKIGRTNARRLFKLDGA
B13: 30 (protein)
chain: MARGKIALEEHVSTPENNRLWDSTGEANRNGSEYMQDVERRLLDRSIQLEEMAQRNIDHVILSLTSPGAQSILDKAKAVSFARDTNDFIVDNYVKPNPDKFSAFATLALQNPEAAAEELERAVKKLGMKGALINGYTNVKDSEHGLYLDDESMLVFWDKVNELNVPVYLHPREPLEGPARGIYTGYESLIGSAWGFAQETAVHAIRLMMSGLFDRYPNLNLVLGHLGEGLVHMLPRTQHRLYRQRFGCGLGKAEKPLMHYLQNNFIVTTSGHFNTHSLNNAIEVMGADRVMFSVDYPYEDIHQACDWFDPLEMDEGLKEKIAWGNASRVFNIK
modifications: Enterobacter aerogenes

Test: Dicamba decarboxylation activity of computationally designed protein variants
Details: Table 4, variants designed to introduce activity

Molecule	Dicamba Decarboxylation activity
B1	Yes
B2	Yes
B3	Yes
B4	No
B5	No

Same assay, conditions: Table 5, designed variants with improved activity

Molecule	Dicamba Decarboxylation activity
B6	Yes

Same assay, conditions: native protein or designed variant versus parent

Molecule	Dicamba Decarboxylase Activity
B7	not active for dicamba decarboxylation; also recorded: Neither of the native proteins have dicamba decarboxylase activity
B8	Neither of the native proteins have dicamba decarboxylase activity
B9	improved dicamba decarboxylase activity

Same assay, conditions: parent SEQ ID NO:1 or SEQ ID NO:41 listed as 100

Molecule	Percent Activity Improvement Over Parent (%)
B6	100%

Test: 14C assay with IPTG-induced recombinant E. coli cells (14CO2 capture from [14C]-carboxyl-labeled dicamba)
Details: IPTG-induced recombinant E. coli cells; [14C]-carboxyl-labeled dicamba; 14CO2 capture

Molecule	Dicamba Decarboxylase Activity
B10	High
B4	No
B11	High
B5	No
B12	High
B6	High
B13	High

Same assay, conditions: dicamba decarboxylation activity of the protein of the given SEQ ID NO

Molecule	Enzymatic Detection level
B10	High
B1	High
B2	High
B3	High
B4	No
B11	High
B5	No
B12	High
B6	High
B13	High

From patent publication US20140287419A1, “Compositions Having Dicamba Decarboxylase Activity and Methods of Use” (priority 2013, published 2014)
